From publication PMC6582347

Tests used:
[1] = test system: Gal4(1-147) (Saccharomyces cerevisiae); test: ensemble FRET titration; details: FRET (Gal4): 130 mM NaCl, 10 mM Tris-HCl pH 8, 0.01% Tween 20, 10% glycerol, 0.5 nM substrate, PIFE (LexA): 130 mM NaCl, 10 mM Tris pH 8, 10% glycerol, 0.005% …
[2] = test system: LexA; test: PIFE titration; details: FRET (Gal4): 130 mM NaCl, 10 mM Tris-HCl pH 8, 0.01% Tween 20, 10% glycerol, 0.5 nM substrate, PIFE (LexA): 130 mM NaCl, 10 mM Tris pH 8, 10% glycerol, 0.005% …

Substance: 601-Gal4-S hexasome (H2A-H2B proximal to Gal4 site)
- K half ([1]; hexasome, dimer-proximal site, smFRET kon 0.0052 s-1 nM-1, koff 0.37 s-1): 47 nM

Substance: 601-Gal4-S nucleosome
- K half ([1]; nucleosome, smFRET kon 0.011 s-1 nM-1, koff 0.32 s-1): 19.6 nM

Substance: 601-LexA-W hexasome (H2A-H2B distal LexA site)
- K half ([2]; hexasome, dimer-distal site): 0.25 nM

Substance: DNA-LexA
- K half ([2]; naked DNA, Cy5-aminoC6-dT internal in reverse strand): 0.3 nM
